This assay has as its target SARS-CoV-2 spike receptor-binding domain (RBD), Wuhan-Hu-1, His-tagged (SARS-CoV-2 (Wuhan-Hu-1), UniProt P0DTC2 319-541). The experiment in a line: BLI. (Biolayer interferometry detects binding as a change in optical thickness at a sensor tip.)

B1: NCI-CoV-1B5 VHH-hFc fusion protein (Fc fusion)
chain: DVQLVESGGGSVQAGGSLRLSCTGSRYTYSTYCMGWFRQAPGKEEEAVAIINSGGGEPYYGDSVKGRFTISQDRAKNTVYLQMDGLQPDDTAIYYCVAADSHNSRCYLGRSYVNYWGQGTQVTVSS
B1: the affinity, expressed as Kd, was 0.1 nM.

The values are drawn from PMC9170159 (2022).
